B1: PKR1: yeast GST-HisX6 fusion protein on proteome chip (protein, UniProt Q03880 1-122, looked up)
V-type ATPase assembly factor …: MANFFVRLWESVFEPGTSPQLIIATHVSFVALLLTLIWLIYATNGNIHFYALFCISLLLWITVIWFINELSHVKLKDNDELDKDANKKDDSAIKEDSEDKQESGKSTSTARRTQAQSRSRKA
modifications: GST-His6 tag
notes: yeast GST-HisX6 fusion protein on proteome chip
B2: WRS1: yeast GST-HisX6 fusion protein on proteome chip (protein, UniProt Q12109 1-432, looked up)
Tryptophan--tRNA ligase, …: MSNDETVEKVTQQVSELKSTDVKEQVVTPWDVEGGVDEQGRAQNIDYDKLIKQFGTKPVNEETLKRFKQVTGREPHHFLRKGLFFSERDFTKILDLYEQGKPFFLYTGRGPSSDSMHLGHMIPFVFTKWLQEVFDVPLVIELTDDEKFLFKHKLTINDVKNFARENAKDIIAVGFDPKNTFIFSDLQYMGGAFYETVVRVSRQITGSTAKAVFGFNDSDCIGKFHFASIQIATAFPSSFPNVLGLPDKTPCLIPCAIDQDPYFRVCRDVADKLKYSKPALLHSRFFPALQGSTTKMSASDDTTAIFMTDTPKQIQKKINKYAFSGGQVSADLHRELGGNPDVDVAYQYLSFFKDDDVFLKECYDKYKSGELLSGEMKKLCIETLQEFVKAFQERRAQVDEETLDKFMVPHKLVWGEKERLVAPKPKTKQEKK
modifications: GST-HisX6 tag
notes: as for B1
B3: DPS1: yeast GST-HisX6 fusion protein on proteome chip (protein, UniProt P04802 2-557, looked up)
Aspartate--tRNA ligase, …: SQDENIVKAVEESAEPAQVILGEDGKPLSKKALKKLQKEQEKQRKKEERALQLEAEREAREKKAAAEDTAKDNYGKLPLIQSRDSDRTGQKRVKFVDLDEAKDSDKEVLFRARVHNTRQQGATLAFLTLRQQASLIQGLVKANKEGTISKNMVKWAGSLNLESIVLVRGIVKKVDEPIKSATVQNLEIHITKIYTISETPEALPILLEDASRSEAEAEAAGLPVVNLDTRLDYRVIDLRTVTNQAIFRIQAGVCELFREYLATKKFTEVHTPKLLGAPSEGGSSVFEVTYFKGKAYLAQSPQFNKQQLIVADFERVYEIGPVFRAENSNTHRHMTEFTGLDMEMAFEEHYHEVLDTLSELFVFIFSELPKRFAHEIELVRKQYPVEEFKLPKDGKMVRLTYKEGIEMLRAAGKEIGDFEDLSTENEKFLGKLVRDKYDTDFYILDKFPLEIRPFYTMPDPANPKYSNSYDFFMRGEEILSGAQRIHDHALLQERMKAHGLSPEDPGLKDYCDGFSYGCPPHAGGGIGLERVVMFYLDLKNIRRASLFPRDPKRLRP
modifications: GST-His6 fusion tag
notes: as for B1

System: PI(4)P liposomes
Assay: Yeast proteome chip probed with PI(4)P liposomes
Conditions: liposome binding signal on yeast proteome chip, Cy3-streptavidin detection

Molecule | PI(4)P
B1 | 61.40
B2 | 4.57
B3 | 99.29

System: PI(3,4,5)P3 liposomes
Assay: Yeast proteome chip probed with PI(3,4,5)P3 liposomes
Conditions: liposome binding signal on yeast proteome chip, Cy3-streptavidin detection

Molecule | PI(3, 4, 5)P3
B1 | 15.75
B2 | 51.08
B3 | 13.05

System: PI(4,5)P2 liposomes
Assay: Yeast proteome chip probed with PI(4,5)P2 liposomes
Conditions: liposome binding signal on yeast proteome chip, Cy3-streptavidin detection

Molecule | PI(4, 5)P2
B1 | 87.75
B2 | 21.56
B3 | 41.81

System: phosphatidylcholine (PC) liposomes
Assay: Yeast proteome chip probed with PC liposomes
Conditions: liposome binding signal on yeast proteome chip, Cy3-streptavidin detection
Outline: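 Yeast proteome chips incubated 1 h at RT with sonicated liposomes of PC containing 1% (w/w) biotin-DHPE, plus 5% (w/w) of the indicated phosphoinositide where applicable. After PBS washes, bound liposomes detected with Cy3- or Cy5-streptavidin (>30 min, RT, dark) and fluorescence scanned.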

Molecule | PC
B1 | 61.63
B2 | 62.51
B3 | 62.22

System: PI(3,4)P2 liposomes
Assay: Yeast proteome chip probed with PI(3,4)P2 liposomes
Conditions: liposome binding signal on yeast proteome chip, Cy3-streptavidin detection

Molecule | PI(3, 4)P2
B1 | 37.52
B2 | 63.10
B3 | 25.12

Source: patent US20050182242A1, “Global analysis of protein activities using proteome chips” (priority 2001, published 2005)
